# Reference: US20190175744A1 (Merck Sharp & Dohme, published 2019)
# Starred links: 1 amine or outer side, 2 acyl side, 3 side chain; linkers in the order of their positions; H or OH if unused. Non-standard residues stand in square brackets, D forms with d. Groups on a side chain read outwards from the residue. No end group written: not given here. *: point of attachment. C20 diacid = O=C(O)CCCCCCCCCCCCCCCCCCC(=O)*; Lys(N3) = [N-]=[N+]=NCCCC[C@H](N)C(=O)O; γGlu = O=C(O)[C@H](CCC(=O)[*:2])N[*:1]; Met(O2) = CS(=O)(=O)CC[C@H](N)C(=O)O; AEEA = NCCOCCOCC(=O)O; Aib = CC(C)(N)C(=O)O
# Experiments:
# Assay in all cases: cell-based or functional assay
# human glucagon receptor = human glucagon receptor (human, UniProt P47871 26-477)
# human GLP-1 receptor = human GLP-1 receptor (human, UniProt P43220 24-463)
# [1] = biological target: human Glucagon receptor (GCGR) (human, UniProt P47871 26-477)
# [2] = biological target: human GLP-1 receptor (GLP1R) (human, UniProt P43220 24-463)
Binder,hGCGR_EC50 (cAMP activity assay) (human glucagon receptor),hGLP1R EC50 (cAMP activity assay) (human GLP-1 receptor),"Incretin Receptor Assay (cAMP) EC50, GCGR (Human) [1]","Incretin Receptor Assay (cAMP) EC50, GLP1R (Human) [2]"
H[Aib]QGTFTSDYSKYLDARAAK([AEEA-AEEA-γGlu-C20 diacid])DFV[Lys(N3)]WL[Met(O2)]DT-NH2 (N-terminus assumed; SMILES CC(C)C[C@H](NC(=O)[C@H](Cc1ccc(O)cc1)NC(=O)[C@H](CCCCN)NC(=O)[C@H](CO)NC(=O)[C@H](Cc1ccc(O)cc1)NC(=O)[C@H](CC(=O)O)NC(=O)[C@H](CO)NC(=O)[C@@H](NC(=O)[C@H](Cc1ccccc1)NC(=O)[C@@H](NC(=O)CNC(=O)[C@H](CCC(N)=O)NC(=O)C(C)(C)NC(=O)[C@@H](N)Cc1c[nH]cn1)[C@@H](C)O)[C@@H](C)O)C(=O)N[C@@H](CC(=O)O)C(=O)N[C@@H](C)C(=O)N[C@@H](CCCNC(=N)N)C(=O)N[C@@H](C)C(=O)N[C@@H](C)C(=O)N[C@@H](CCCCNC(=O)COCCOCCNC(=O)COCCOCCNC(=O)CC[C@H](NC(=O)CCCCCCCCCCCCCCCCCCC(=O)O)C(=O)O)C(=O)N[C@@H](CC(=O)O)C(=O)N[C@@H](Cc1ccccc1)C(=O)N[C@H](C(=O)N[C@@H](CCCCN=[N+]=[N-])C(=O)N[C@@H](Cc1c[nH]c2ccccc12)C(=O)N[C@@H](CC(C)C)C(=O)N[C@@H](CCS(C)(=O)=O)C(=O)N[C@@H](CC(=O)O)C(=O)N[C@H](C(N)=O)[C@@H](C)O)C(C)C) [PEP31],4.24 nM,1.38 nM,–,–
H[dS]QGTFTSDKSKYLDERAA[Lys(N3)]DFVQWLLDT-NH2 [PEP71],0.12 nM,0.06 nM,–,–
HXEGTFTSDKSKYLDERAAQDFVXWLLDT (D-Ser (s) at 2; Lys 10 K(γEγEC16); Nle(εN3) at 24; C-terminal amide) [PEP75],> 5 nM,0.07 nM,–,–
HXQGTFTSDKSKYLDERAAQDXVXWLXDT (D-Ser (s) at 2; Lys 10 K(γEγEC16); alpha-methyl-L-Phe (αMF) at 22; Nle(εN3) at 24; L-methionine sulphone (2) at 27; C-terminal amide) [PEP35],0.05 nM,0.05 nM,–,–
H[dS]QGTFTSDK([γGlu-γGlu-C16])SKYLDERAAQDFVQWLLDT-NH2 [Control molecule PEP76 (Table 7)],–,–,9 pM,0.007 nM
HXQGTFTSDKSKYLDERAAQXFVXWLXDT (D-Ser (s) at 2; Lys 10 K(γEγEC16); alpha-methyl-L-Asp (αMD) at 21; Nle(εN3) at 24; L-methionine sulphone (2) at 27; C-terminal amide) [PEP34],0.05 nM,0.05 nM,–,–
HXQGTFTSDKSKYLDERAAQDFVXWLLDT (HsQGTFTSDK(γEγEC16)…le(ϵN3)WLLDT-NH2 (s=D-serine; K(γEγEC16) at 10; Nle(ϵN3)=azidonorleucine at 24; NH2=C-terminal amide)) [PEP74],–,–,–,0.05 nM
HXQGTFTSDKSKYLDERAAQDFVXWXXDT (D-Ser (s) at 2; Lys 10 K(γEγEC16); Nle(εN3) at 24; alpha-methyl-L-Leu (αML) at 26; L-methionine sulphone (2) at 27; C-terminal amide) [PEP37],0.06 nM,0.04 nM,–,–
HXQGTFTSXKSKYLDERAAQDFVXWLXDT (D-Ser (s) at 2; alpha-methyl-L-Asp (αMD) at 9; Lys 10 K(γEγEC16); Nle(εN3) at 24; L-methionine sulphone (2) at 27; C-terminal amide) [PEP32],0.06 nM,0.04 nM,–,–
HXQGTFTSDKSKYLDERAAQDFVXWLLDT (D-Ser (s) at 2; Nle(εN3) at 24; C-terminal amide) [PEP69],0.31 nM,0.16 nM,–,–
